{
  "source": "paper PMC3690595",
  "about": "(Biochemistry, 2013)",
  "target": "the molecule itself",
  "experiment": "2D-DIGE with tandem mass spectrometry of picked spots",
  "data": [
    {"protein": "βB1-crystallin (natural protein, mouse (endogenous in mouse lens), UniProt Q9WVJ5 1-250, looked up) MSQAAKASATTAVNPGPDGKGKGAPSTGPAPAPGPTPVPASVPRPAAKVGDLPPGSYRLIVFEQENFQGRRVEFSGECLNLGDRGFDRVRSLIVVSGPWVAFEQSAFRGEMFVLEKGEYPRWDTWTSSYRSDRLMSFRPIRMDSQEHKICLFEGANFKGNTMEIQEDDVPSLWVYGFCDRVGSITVSGGTWVGYQYPGYRGYQYLLEPGDFRHWNEWGAFQPQMQAVRRLRDRQWHQEGCFPVLTAEPPK", "values": [
      {"measurement": "stoichiometry N", "result": 2}
    ]}
  ]
}
